Measurements published in patent US20160136234A1.

How the values were obtained:
Experiment in all cases: cell-based or functional assay
CDK1/cyclinB (h) (human) = CDK1/cyclinB (h) (human) (UniProt P06493)
CDK5/p25 (h) (human) = CDK5/p25 (h) (human) (UniProt Q00535)
LKB1 (h) (human) = biological target: T1, LKB1 (h) (human) (UniProt Q15831)
T1 sequence (looked up): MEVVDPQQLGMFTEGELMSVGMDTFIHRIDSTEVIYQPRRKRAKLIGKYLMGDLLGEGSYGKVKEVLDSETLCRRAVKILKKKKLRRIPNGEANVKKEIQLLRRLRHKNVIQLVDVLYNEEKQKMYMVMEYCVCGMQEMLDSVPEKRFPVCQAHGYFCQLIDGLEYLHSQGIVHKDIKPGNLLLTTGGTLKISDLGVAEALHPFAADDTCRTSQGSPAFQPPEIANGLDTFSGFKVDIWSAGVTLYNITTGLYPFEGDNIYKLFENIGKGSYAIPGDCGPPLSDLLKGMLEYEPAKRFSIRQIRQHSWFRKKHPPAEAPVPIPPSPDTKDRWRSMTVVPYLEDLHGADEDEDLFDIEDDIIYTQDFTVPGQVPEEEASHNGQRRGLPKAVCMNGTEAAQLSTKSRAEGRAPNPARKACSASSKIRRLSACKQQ

MRCKβ (h) (human) = MRCKβ (h) (human) (UniProt Q9Y5S2)
Chain of MRCKβ (h) (human) (Q9Y5S2 1-473 limits assumed): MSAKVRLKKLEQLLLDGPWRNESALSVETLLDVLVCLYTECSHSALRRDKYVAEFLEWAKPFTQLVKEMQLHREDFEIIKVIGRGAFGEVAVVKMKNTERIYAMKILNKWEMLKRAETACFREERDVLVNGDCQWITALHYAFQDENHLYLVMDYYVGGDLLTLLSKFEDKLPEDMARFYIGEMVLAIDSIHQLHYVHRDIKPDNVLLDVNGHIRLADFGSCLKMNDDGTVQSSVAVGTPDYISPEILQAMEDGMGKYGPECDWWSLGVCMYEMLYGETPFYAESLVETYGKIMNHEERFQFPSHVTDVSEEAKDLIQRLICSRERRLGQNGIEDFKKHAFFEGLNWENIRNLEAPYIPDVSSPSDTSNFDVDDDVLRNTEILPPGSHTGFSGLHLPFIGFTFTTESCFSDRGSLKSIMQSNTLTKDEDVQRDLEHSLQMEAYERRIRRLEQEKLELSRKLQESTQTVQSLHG

% activity at 100 µM (CDK1/cyclinB (h) (human)): 73% | % activity at 100 µM (CDK5/p25 (h) (human)): 89% | % activity at 100 µM (LKB1 (h) (human)): 101% | % activity at 100 µM (MRCKβ (h) (human)): 83%
Substance: MMI-0300 (peptide)
